Substitutions are numbered along the chain they refer to. A value given as a limit tells only on which side of the number the result lay.

The source of these data is US20260234738A1 (Regeneron, published 2026).

The labels stand for the following.
B1: mAb10934 (antibody, V domains shown)
VH: not shown
VL: DIQMTQSPSSLSASVGDRVTITCQASQDIWNYINWYQQKPGKAPKLLIYDASNLKTGVPSRFSGSGSGTDFTFTISSLQPEDIATYYCQQHDDLPPTFGQGTKVEIKR
B2: mAb10935 (antibody, V domains shown)
VH: EVQLVESGGGLVQPGGSLRLSCAASGFTVSSNYMSWVRQAPGKGLEWVSLIYSGGSTYYADSVKGRFTISRHNSKNTLYLQMNSLRSEDTAVYYCARVPLGDYYYGMDVWGQGTTVTVSS
VL: B1 VL with W30N, N31K, I33L, K55E, H91S, D93N, P96L, Q100G
B3: mAb10936 (antibody, V domains shown)
VH: QVQLVESGGGVVQPGRSLRLSCAASGFTFRNYGMHWVRQAPGKGLEWVSVIWYDGSNRYYADSVKGRFTISRDTSKNTLYLQMNSLRAEDTAVYYCARDPPITGTTGGDAFDIWGQGTMVTVSS
VL: not shown
B4: mAb10932 (antibody, V domains shown)
VH: EVQLVESGGGLVQSGGSLRLSCAASGLTVSSNYMSWVRQAPGKGLEWVSVIYSGGSTFYSDSVKGRFTISRHNSKNTLYLQMNSLRAEDTAVYYCARARGDAFDIWGQGTMVTVSS
VL: not shown
B5: mAb10937 (antibody, V domains shown)
VH: QITLKESGPTLVKPTQTLTLTCTFSGFSLSTNVVGVGWIRQPPGKALEWLALIYWNDDKRYSPSLKSRLTITKDTSKNQVVLTMTNMDPVDTATYYCAHGPTGDYFDYWGQGTLVTVSS
VL: not shown
B6: mAb10913 (antibody, V domains shown)
VH: EVQLVESGGGLVQPGGSLRLSCAASGFTFRNYEMNWVRQAPGKGLEWVSYITSSGSTMYYADSVKGRFTISRDNAKNSLYLQMNSLRAEDTAVYYCARDGFYYYYAMDVWGQGTTVTVSS
VL: QSVLTQPPSVSAAPGQKVTISCSGSSSNIGNNYVSWYQQLPGTAPKLLIYDNNKRPSGIPDRFSGSKSGTSATLGITGLQTGDEADYYCGTWDSSLSVGRVFGTGTKVTVLG
B7: mAb10921 (antibody, V domains shown)
VH: EVQLVESGGGLVQPGGSLRLSCAASGITVSSNYMSWVRQAPGKGLEWVSVIYSGGSTFYADSVKGRFTISRHNSKNTLYLQMNSLRAEDTAVYYCARERNFDAFDIWGQGTMVTVSS
VL: DIQMTQSPSSVSASVGDRVTITCRASQGISSWLAWYQQKPGKAPKLLIYAASSLQSGVPSRFSGSGSGTDFTLTISSLQPEDFATYYCQQANSFPLFTFGPGTKVDIKR
B8: mAb10923 (antibody, V domains shown)
VH: QVQLVQSGAEVKKPGASVKVSCKASGYTFINYYIHWVRQAPGQGLEWMGWINPNSGGTNYAQKFQGRVTMTRDTSISTAYMELSRLRSDDTAVYYCAIITIFGVVTWFDPWGQGTLVTVSS
VL: not shown
B9: mAb10920 (antibody, V domains shown)
VH: QVQLVESGGGVVQPGRSLRLSCAASGFTFSYYGMHWVRQAPGKGLEWVAVIWYDGSNKFYADSVKGRFTISRDNSKNTLYLQMNSLRAEDTAVYYCAAARPGYYYGMDVWGQGTTVTVSS
VL: DIQMTQSPSSLSASVGDRVTITCRASQGISNYLAWFQQKPGKAPNSLIYAASSLQRGVPSKFSGSGSGTDFTLTISSLQPEDFATYYCQQYNSYPRTFGQGTKVEIKR

The assay deals with SARS-COV-2 RBD extracellular domain expressed with a C-terminal mouse IgG2a (SARS-CoV-2).
By Kd is commonly meant a measure of binding affinity in units of concentration. Broadly, the t½ is the time in which the quantity being followed falls by half. Read a low t½ as rapid decline. B1 showed a Kd of 0.0832 nM and a t½ of 1.64 h.
In general, koff refers to a measure of how fast the partners let go of each other. A word on the kon: it is the second-order rate constant of association. With B2, the Kd was at most 0.0261 nM, the koff was at most 1e-05 s⁻¹, the kon came to 383000 M⁻¹ s⁻¹ and the t½ is at least 19.2 h.
In the case of B3, the Kd is at most 0.0153 nM, the koff is at most 1e-05 s⁻¹, the kon worked out at 652000 M⁻¹ s⁻¹ and the t½ is at least 19.2 h.
Taken in the same sequence, the figures for B4 were at most 0.0413 nM, at most 1e-05 s⁻¹, 242000 M⁻¹ s⁻¹ and at least 19.2 h.
In turn, B5 registered a Kd of 0.114 nM, a koff of 7.28e-05 s⁻¹, a kon of 639000 M⁻¹ s⁻¹ and a t½ of 2.64 h.
Taken in the same sequence, the figures for B6 were 0.244 nM, 0.000152 s⁻¹, 623000 M⁻¹ s⁻¹ and 1.27 h.
B7: the Kd is at most 0.0375 nM, the koff is at most 1e-05 s⁻¹ and the t½ was at least 19.2 h.
In turn, B8 registered a Kd of 0.0435 nM, a koff of 2.83e-05 s⁻¹, a kon of 651000 M⁻¹ s⁻¹ and a t½ of 6.79 h.
On to B9, for which the affinity, expressed as Kd, was 0.416 nM and the t½ was determined as 0.658 h.
